Laboratory results as given in PMC5702047.

Target: TRC40 (rabbit (endogenous in reticulocyte lysate))

reduction of the integration of Sec61βOPG2 and RAMP4OPG into RMs (N-glycosylation) in vitro, post-translational, with an excess of WRBcc: 50%
Substance: cytosolic domain of the WRB receptor (WRBcc) (domain or fragment)
